Here are results for ten substances from the supplement of paper PMC5998384.

The subject of data set [1] is HeLa Kyoto. Briefly: solubility change mitosis vs G1/S (difference of NP-40 vs SDS log2 ratios) (log2 ratio difference); higher = more soluble in mitosis.
Data set [2] concerns HeLa Kyoto. Briefly: solubility in G1/S (NP-40 vs SDS abundance) (log2 ratio); higher = more soluble. As to conditions: cell cycle stage: G1/S.
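Throughout, for solubility change mitosis vs G1/S (difference of NP-40 vs SDS log2 ratios): synchronized HeLa Kyoto cells (double thymidine block for G1/S, nocodazole release for mitosis), protein amounts in NP-40 versus SDS lysates quantified by mass spectrometry, three biological replicates.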
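Throughout, for solubility in G1/S (NP-40 vs SDS abundance): HeLa Kyoto cells arrested at G1/S by double thymidine block, proteins quantified by TMT10plex mass spectrometry in mild NP-40 versus SDS extracts, three biological replicates.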

Chain of CMC2 (chain, as listed by the source): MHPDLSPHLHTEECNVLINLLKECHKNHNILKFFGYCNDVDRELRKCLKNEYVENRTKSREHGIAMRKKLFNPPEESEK
Chain of MAP4K5 (chain, as listed by the source): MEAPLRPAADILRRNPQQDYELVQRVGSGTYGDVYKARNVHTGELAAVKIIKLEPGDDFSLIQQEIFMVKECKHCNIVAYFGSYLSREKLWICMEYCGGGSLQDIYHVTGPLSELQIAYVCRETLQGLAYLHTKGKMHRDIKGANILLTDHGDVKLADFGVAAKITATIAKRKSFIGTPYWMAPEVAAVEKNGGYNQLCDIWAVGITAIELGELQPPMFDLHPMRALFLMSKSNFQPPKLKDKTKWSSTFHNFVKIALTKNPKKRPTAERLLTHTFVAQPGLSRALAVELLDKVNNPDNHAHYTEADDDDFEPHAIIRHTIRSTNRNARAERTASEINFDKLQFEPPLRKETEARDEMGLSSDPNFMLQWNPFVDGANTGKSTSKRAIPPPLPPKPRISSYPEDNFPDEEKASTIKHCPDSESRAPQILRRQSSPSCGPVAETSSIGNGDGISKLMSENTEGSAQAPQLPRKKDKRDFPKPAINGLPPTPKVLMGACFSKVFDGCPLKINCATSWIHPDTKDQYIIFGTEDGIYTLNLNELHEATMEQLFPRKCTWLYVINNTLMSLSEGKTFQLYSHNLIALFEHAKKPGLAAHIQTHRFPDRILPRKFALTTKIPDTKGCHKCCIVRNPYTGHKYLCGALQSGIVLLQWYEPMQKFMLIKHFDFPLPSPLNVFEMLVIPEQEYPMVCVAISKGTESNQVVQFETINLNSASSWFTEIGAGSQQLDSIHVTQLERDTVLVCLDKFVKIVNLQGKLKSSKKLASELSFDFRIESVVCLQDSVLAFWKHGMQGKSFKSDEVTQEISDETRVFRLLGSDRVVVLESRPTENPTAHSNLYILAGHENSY

For the substance “MIRDLSKMYPQTRHPAPHQPAQPFKFTISESCDRIKEEFQFLQAQYHSLKLECEKLASEKTEMQRHYVMYYEMSYGLNIEMHKQAEIVKRLNAICAQVIPFLSQEHQQQVVQAVERAKQVTMAELNAIIGQQLQAQHLSHGHGLPVPLTPHPSGLQPPAIPPIGSSAGLLALSSALGGQSHLPIKDEKKHHDNDHQRDRDSIKSSSVSPSASFRGAEKHRNSADYSSESKKQKTEEKEIAARYDSDGEKSDDNLVVDVSNEDPSSPRGSPAHSPRENGLDKTRLLKKDAPISPASIASSSSTPSSKSKELSLNEKSTTPVSKSNTPTPRTDAPTPGSNSTPGLRPVPGKPPGVDPLASSLRTPMAVPCPYPTPFGIVPHAGMNGELTSPGAAYAGLHNISPQMSAAAAAAAAAAAYGRSPVVGFDPHHHMRVPAIPPNLTGIPGGKPAYSFHVSADGQMQPVPFPPDALIGPGIPRHARQINTLNHGEVVCAVTISNPTRHVYTGGKGCVKVWDISHPGNKSPVSQLDCLNRDNYIRSCRLLPDGRTLIVGGEASTLSIWDLAAPTPRIKAELTSSAPACYALAISPDSKVCFSCCSDGNIAVWDLHNQTLVRQFQGHTDGASCIDISNDGTKLWTGGLDNTVRSWDLREGRQLQQHDFTSQIFSLGYCPTGEWLAVGMENSNVEVLHVTKPDKYQLHLHESCVLSLKFAHCGKWFVSTGKDNLLNAWRTPYGASIFQSKESSSVLSCDISVDDKYIVTGSGDKKATVYEVIY [TLE4]”, the “solubility change mitosis (log2)” value in data set [1] is -0.13. Besides, in data set [2], the “solubility in G1/S (log2)” value is -0.00686.

Turning to “MERMNWLSRLASRGPGHRIPQGANLQTPVMADPETCLMVFKNHWSQVVRILERQGPRAAPGGADDLSAVRNHTYQMLTLLAEDRAVPSAPTGPGPLLEFALHEDLLTRVLTWQLQWDELGDGVEERRAEQLKLFEMLVSEARQPLLRHGPVREALLTLLDACGRPVPSSPALDEGLVLLLSQLCVCVAQEPSLLEFFLQPPPEPGAAPRLLLFSRLVPFVHREGTLGQQARDALLLLMALSAGSPTVGRYIADHSYFCPVLATGLSALYSSLPRKIEVPGDDWHCLRREDWLGVPALALFMSSLEFCNAVIQVAHPLVQKQLVDYIHNGFLVPVMGPALHKTSVEEMIASTAYLELFLRSISEPALLRTFLRFLLLHRHDTHTILDTLVARIGSNSRLCMVSLSLFRTLLNLSCEDVLLQLVLRYLVPCNHVMLSQKPAVRDVDLYGRAADKFLSLIPRCCRHHAPSPPRPEHASWARGPGSPSVDSSSVTTVPRPSTPSRLALFLRQQSLGGSESPGPAPCSPGLSASPASSPGRRPTPAEEPGELEDNYLEYLREARRGVDRCVRACRTWSAPYDGERPSPEPSPFGSRTKKRSLLPEEDRNNVGEGEEEELGRRGRAGGAGEGPGHLPPPQLNGVPGSWPEGAKKVRLVPKEGAGELLEGISEGMAGLEGFGQELRELEVALSNGGTGSESPLEPPLPLEEEEAYESFTCPPEPPGPFLSSPLRTLNQLPSQPFTGPFMAVLFAKLENMLQNSVYVNFLLTGLVAQLACHPQPLLRSFLLNTNMVFQPSVKSLLQVLGSVKNKIENFAASQEDFPALLSKAKKYLIARGKLDWAEGPAAGPAPRRSDPLVKSRRPSLGELLLRHAHSPTRARQAAQLVLQPGRDGAGLGLSGGSPGASTPVLLTRGGAPERQGEALRVKNAVYCAVIFPEFLKELAAISQAHAVTSPFLLETSEEGSGPLISGCGPLNP [FAM160A2]”, the “solubility change mitosis (log2)” value in data set [1] was 0.0167. In addition, the “solubility in G1/S (log2)” value in data set [2] is 0.177.

As for “MEIAPQEAPPVPGADGDIEEAPAEAGSPSPASPPADGRLKAAAKRVTFPSDEDIVSGAVEPKDPWRHAQNVTVDEVIGAYKQACQKLNCRQIPKLLRQLQEFTDLGHRLDCLDLKGEKLDYKTCEALEEVFKRLQFKVVDLEQTNLDEDGASALFDMIEYYESATHLNISFNKHIGTRGWQAAAHMMRKTSCLQYLDARNTPLLDHSAPFVARALRIRSSLAVLHLENASLSGRPLMLLATALKMNMNLRELYLADNKLNGLQDSAQLGNLLKFNCSLQILDLRNNHVLDSGLAYICEGLKEQRKGLVTLVLWNNQLTHTGMAFLGMTLPHTQSLETLNLGHNPIGNEGVRHLKNGLISNRSVLRLGLASTKLTCEGAVAVAEFIAESPRLLRLDLRENEIKTGGLMALSLALKVNHSLLRLDLDREPKKEAVKSFIETQKALLAEIQNGCKRNLVLAREREEKEQPPQLSASMPETTATEPQPDDEPAAGVQNGAPSPAPSPDSDSDSDSDGEEEEEEEGERDETPCPALVPPTDSLGPGDRSPPGSPSTPTEQRISVSSPGRGHKVFVVTRVESPPERAEPPASPTPPSPPPPPSPPASPSLPPAGAIDTRDTGSSEPQPPPEPPRSGPPLPNGLKPEFALALPPEPPPGPEVKGGSCGLEHELSCSKNEKELEELLLEASQESGQETL [PPP1R37]”, the “solubility change mitosis (log2)” value in data set [1] is -0.284. Also, the “solubility in G1/S (log2)” value in data set [2] is 0.0581.

Consider “MALLRRPTVSSDLENIDTGVNSKVKSHVTIRRTVLEEIGNRVTTRAAQVAKKAQNTKVPVQPTKTTNVNKQLKPTASVKPVQMEKLAPKGPSPTPEDVSMKEENLCQAFSDALLCKIEDIDNEDWENPQLCSDYVKDIYQYLRQLEVLQSINPHFLDGRDINGRMRAILVDWLVQVHSKFRLLQETLYMCVGIMDRFLQVQPVSRKKLQLVGITALLLASKYEEMFSPNIEDFVYITDNAYTSSQIREMETLILKELKFELGRPLPLHFLRRASKAGEVDVEQHTLAKYLMELTLIDYDMVHYHPSKVAAAASCLSQKVLGQGKWNLKQQYYTGYTENEVLEVMQHMAKNVVKVNENLTKFIAIKNKYASSKLLKISMIPQLNSKAVKDLASPLIGRS [CCNB2]”, for which, in data set [1], the “solubility change mitosis (log2)” value is 0.0941. Also, the “solubility in G1/S (log2)” value in data set [2] came to 0.241.

In the case of MAP4K5, in data set [1], the “solubility change mitosis (log2)” value was -0.0819. The “solubility in G1/S (log2)” value in data set [2] turned out to be 0.172.

With CCDC88C, the “solubility change mitosis (log2)” value in data set [1] was -0.288. Further, the “solubility in G1/S (log2)” value in data set [2] is -0.065.

With KMT2B, in data set [1], the “solubility change mitosis (log2)” value turned out to be 0.243. Further, the “solubility in G1/S (log2)” value in data set [2] is -0.355.

In the case of CMC2, in data set [1], the “solubility change mitosis (log2)” value came out at 0.0296. Besides, the “solubility in G1/S (log2)” value in data set [2] stood at 0.229.

In the case of “MAGARRLELGEALALGSGWRHACHALLYAPDPGMLFGRIPLRYAILMQMRFDGRLGFPGGFVDTQDRSLEDGLNRELREELGEAAAAFRVERTDYRSSHVGSGPRVVAHFYAKRLTLEELLAVEAGATRAKDHGLEVLGLVRVPLYTLRDGVGGLPTFLENSFIGSAREQLLEALQDLGLLQSGSISGLKIPAHH [NUDT16]”, the “solubility change mitosis (log2)” value in data set [1] was -0.184. In data set [2], the “solubility in G1/S (log2)” value was determined as 0.0531.

With “MEEFDLVKTLHKTSSSVGSDENSLHSLGLNLNTDRSSPHLSTNGVSSFSGKTRPSVIQGTVEVLTSLMQELQNSGKTDSELWKNCETRWLQLFNLVEKQCQEQIVAQQEQFHNQIQHIQEEIKNLVKLQTSSASLASCEGNSSNKQVSSESQMGFFSLSSERNESVIHYPESTEPEIQQEMSTSQPDCNVDSCSVSSGYGTFCISELNLYKSKDPKEFMEHIDVPKGQYVAPAVPAESLVDGVKNENFYIQTPEECHVSLKEDVSISPGEFEHNFLGENKVSEVYSGKTNSNAITSWAQKLKQNQPKRAHVEDGGSRSKQGNEQSKKTPIEKSDFAAATHPRAFYLSKPDETPNAWMSDSGTGLTYWKLEEKDMHHSLPETLEKTFISLSSTDVSPNQSNTSNEMKLPSLKDIYYKKQRENKQLPERNLTSASNPNHPPEVLTLDPTLHMKPKQQISGIQPHGLPNALDDRISFSPDSVLEPSMSSPSDIDSFSQASNVTSQLPGFPKYPSHTKASPVDSWKNQTFQNESRTSSTFPSVYTITSNDISVNTVDEENTVMVASASVSQSQLPGTANSVPECISLTSLEDPVILSKIRQNLKEKHARHIADLRAYYESEINSLKQKLEAKEISGVEDWKITNQILVDRCGQLDSALHEATSRVRTLENKNNLLEIEVNDLRERFSAASSASKILQERIEEMRTSSKEKDNTIIRLKSRLQDLEEAFENAYKLSDDKEAQLKQENKMFQDLLGEYESLGKEHRRVKDALNTTENKLLDAYTQISDLKRMISKLEAQVKQVEHENMLSLRHNSRIHVRPSRANTLATSDVSRRKWLIPGAEYSIFTGQPLDTQDSNVDNQLEETCSLGHRSPLEKDSSPGSSSTSLLIKKQRETSDTPIMRALKELDEGKIFKNWGTQTEKEDTSNINPRQTETSVNASRSPEKCAQQRQKRLNSASQRSSSLPPSNRKSSTPTKREIMLTPVTVAYSPKRSPKENLSPGFSHLLSKNESSPIRFDILLDDLDTVPVSTLQRTNPRKQLQFLPLDDSEEKTYSEKATDNHVNHSSCPEPVPNGVKKVSVRTAWEKNKSVSYEQCKPVSVTPQGNDFEYTAKIRTLAETERFFDELTKEKDQIEAALSRMPSPGGRITLQTRLNQEALEDRLERINRELGSVRMTLKKFHVLRTSANL [MPHOSPH9]”, the “solubility change mitosis (log2)” value in data set [1] is 0.149. In data set [2], the “solubility in G1/S (log2)” value is -0.0212.
